According to PMC11808191:

Assays:
[1] = target: recombinant protein HR212 (HR2–linker 1–HR1–linker 2–HR2) (SARS-CoV-2 Wuhan hu-1 strain); assay: SPR; Biacore 3000; HR212 fixed to a flow cell of a CM5 sensor; HR1 at 12.5, 25, 50, 100, 200 nM flowed over; 25°C
[2] = target: recombinant protein HR212 (HR2–linker 1–HR1–linker 2–HR2) (SARS-CoV-2 Wuhan hu-1 strain); assay: native gel or EMSA; native PAGE of purified HR212

Substance | Kd [1] [nM] | koff [1] [s⁻¹] | kon [1] [M⁻¹ s⁻¹] | stoichiometry N [2]
HR1 (heptad repeat 1 domain of the SARS-CoV-2 spike S2 subunit) (domain or fragment) | 0.12 | 1.4e-05 | 120000 | –
recombinant protein HR212 (HR2–linker 1–HR1–linker 2–HR2) | – | – | – | 3
